Assay [1] deals with human GLP-1 receptor (GLP-1R) (human, UniProt P43220 24-463). As to the kind of experiment: cell-based or functional assay.
The target of assay [2] is T1, human gastric inhibitory peptide receptor (GIPR) (human, UniProt P48546 22-466).
T1 sequence (looked up): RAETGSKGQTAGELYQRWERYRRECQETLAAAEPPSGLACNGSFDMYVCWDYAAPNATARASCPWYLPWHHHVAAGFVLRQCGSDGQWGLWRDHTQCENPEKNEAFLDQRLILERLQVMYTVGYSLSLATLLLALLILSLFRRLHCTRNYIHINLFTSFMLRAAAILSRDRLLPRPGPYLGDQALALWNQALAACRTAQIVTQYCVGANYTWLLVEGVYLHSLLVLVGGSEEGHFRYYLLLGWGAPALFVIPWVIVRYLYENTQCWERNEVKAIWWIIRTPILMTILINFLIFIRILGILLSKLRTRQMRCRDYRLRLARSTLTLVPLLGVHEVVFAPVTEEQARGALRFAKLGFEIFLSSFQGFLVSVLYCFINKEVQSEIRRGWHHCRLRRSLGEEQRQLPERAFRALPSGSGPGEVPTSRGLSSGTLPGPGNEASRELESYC
As to the kind of experiment: cell-based or functional assay.

Numbered stars: 1 amine (or outer) side, 2 acyl side, 3 side chain; on linkers, the order of the positions; unused ones are H or OH. Square brackets hold non-standard residues; d marks the D form. Side chains are listed from the residue outwards. Ends that are not written are not given here. * marks the point of attachment. C18 diacid = O=C(O)CCCCCCCCCCCCCCCCC(=O)*; γGlu = O=C(O)[C@H](CCC(=O)[*:2])N[*:1]; AEEA = NCCOCCOCC(=O)O; Aib = CC(C)(N)C(=O)O

B1: Example 266 (peptide)
peptide: Y[Aib]EGTFTSDYSILLDKK([AEEA-AEEA-γGlu-C18 diacid])AQ[Aib]AFIEYLIEGGPSSG-NH2
modifications: N-terminus assumed
SMILES: CC[C@H](C)[C@H](NC(=O)[C@H](CC(C)C)NC(=O)[C@H](Cc1ccc(O)cc1)NC(=O)[C@H](CCC(=O)O)NC(=O)[C@@H](NC(=O)[C@H](Cc1ccccc1)NC(=O)[C@H](C)NC(=O)C(C)(C)NC(=O)[C@H](CCC(N)=O)NC(=O)[C@H](C)NC(=O)[C@H](CCCCNC(=O)COCCOCCNC(=O)COCCOCCNC(=O)CC[C@H](NC(=O)CCCCCCCCCCCCCCCCC(=O)O)C(=O)O)NC(=O)[C@H](CCCCN)NC(=O)[C@H](CC(=O)O)NC(=O)[C@H](CC(C)C)NC(=O)[C@H](CC(C)C)NC(=O)[C@@H](NC(=O)[C@H](CO)NC(=O)[C@H](Cc1ccc(O)cc1)NC(=O)[C@H](CC(=O)O)NC(=O)[C@H](CO)NC(=O)[C@@H](NC(=O)[C@H](Cc1ccccc1)NC(=O)[C@@H](NC(=O)CNC(=O)[C@H](CCC(=O)O)NC(=O)C(C)(C)NC(=O)[C@@H](N)Cc1ccc(O)cc1)[C@@H](C)O)[C@@H](C)O)[C@@H](C)CC)[C@@H](C)CC)C(=O)N[C@@H](CCC(=O)O)C(=O)NCC(=O)NCC(=O)N1CCC[C@H]1C(=O)N[C@@H](CO)C(=O)N[C@@H](CO)C(=O)NCC(N)=O
Take B1: in assay [1], the “hGLP1R cAMP EC50 ratio” value was found to be 0.627 and the “hGLP1R cAMP Rel EC50” value was determined as 0.0883 nM. In assay [2], the “hGIPR cAMP EC50 ratio” value came out at 2.82 and the “hGIPR cAMP Rel EC50” value turned out to be 0.0442 nM.

B2: Example 265 (peptide)
peptide: YXEGTXTSDXSIXLDXKAQXEFIXXLIEGG
modifications: Aib2, αMeF(2F)6, 4Pal10, αMeF13 (so in the source), Orn16, (2-[2-(2-Amino-ethoxy)-ethoxy]-acetyl)2-(γ-Glu)-CO-(CH2)16-CO2H on K17, Aib20, D-Glu24, αMeY25, C-terminal NH2
As for B2, in assay [1], the “hGLP1R cAMP EC50 ratio” value is 3.27 and the “hGLP1R cAMP Rel EC50” value was determined as 0.0223 nM. In assay [2], the “hGIPR cAMP EC50 ratio” value amounted to 7.56 and the “hGIPR cAMP Rel EC50” value was 0.0229 nM.

B3: Example 269 (peptide)
peptide: Y[Aib]EGTFTSDYSILLDEK([AEEA-AEEA-γGlu-C18 diacid])AQ[Aib]AFIEYLIEGG-NH2
modifications: N-terminus assumed
SMILES: CC[C@H](C)[C@H](NC(=O)[C@H](CC(C)C)NC(=O)[C@H](Cc1ccc(O)cc1)NC(=O)[C@H](CCC(=O)O)NC(=O)[C@@H](NC(=O)[C@H](Cc1ccccc1)NC(=O)[C@H](C)NC(=O)C(C)(C)NC(=O)[C@H](CCC(N)=O)NC(=O)[C@H](C)NC(=O)[C@H](CCCCNC(=O)COCCOCCNC(=O)COCCOCCNC(=O)CC[C@H](NC(=O)CCCCCCCCCCCCCCCCC(=O)O)C(=O)O)NC(=O)[C@H](CCC(=O)O)NC(=O)[C@H](CC(=O)O)NC(=O)[C@H](CC(C)C)NC(=O)[C@H](CC(C)C)NC(=O)[C@@H](NC(=O)[C@H](CO)NC(=O)[C@H](Cc1ccc(O)cc1)NC(=O)[C@H](CC(=O)O)NC(=O)[C@H](CO)NC(=O)[C@@H](NC(=O)[C@H](Cc1ccccc1)NC(=O)[C@@H](NC(=O)CNC(=O)[C@H](CCC(=O)O)NC(=O)C(C)(C)NC(=O)[C@@H](N)Cc1ccc(O)cc1)[C@@H](C)O)[C@@H](C)O)[C@@H](C)CC)[C@@H](C)CC)C(=O)N[C@@H](CCC(=O)O)C(=O)NCC(=O)NCC(N)=O
Regarding B3, in assay [1], the “hGLP1R cAMP EC50 ratio” value came to 0.828 and the “hGLP1R cAMP Rel EC50” value turned out to be 0.0595 nM. In assay [2], the “hGIPR cAMP EC50 ratio” value amounted to 0.825 and the “hGIPR cAMP Rel EC50” value turned out to be 0.257 nM.

B4: Example 268 (peptide)
peptide: Y[Aib]EGTFTSDYSILLDEK([AEEA-AEEA-γGlu-C18 diacid])AQ[Aib]AFIEYLIEGGPSSG-NH2
modifications: N-terminus assumed
SMILES: CC[C@H](C)[C@H](NC(=O)[C@H](CC(C)C)NC(=O)[C@H](Cc1ccc(O)cc1)NC(=O)[C@H](CCC(=O)O)NC(=O)[C@@H](NC(=O)[C@H](Cc1ccccc1)NC(=O)[C@H](C)NC(=O)C(C)(C)NC(=O)[C@H](CCC(N)=O)NC(=O)[C@H](C)NC(=O)[C@H](CCCCNC(=O)COCCOCCNC(=O)COCCOCCNC(=O)CC[C@H](NC(=O)CCCCCCCCCCCCCCCCC(=O)O)C(=O)O)NC(=O)[C@H](CCC(=O)O)NC(=O)[C@H](CC(=O)O)NC(=O)[C@H](CC(C)C)NC(=O)[C@H](CC(C)C)NC(=O)[C@@H](NC(=O)[C@H](CO)NC(=O)[C@H](Cc1ccc(O)cc1)NC(=O)[C@H](CC(=O)O)NC(=O)[C@H](CO)NC(=O)[C@@H](NC(=O)[C@H](Cc1ccccc1)NC(=O)[C@@H](NC(=O)CNC(=O)[C@H](CCC(=O)O)NC(=O)C(C)(C)NC(=O)[C@@H](N)Cc1ccc(O)cc1)[C@@H](C)O)[C@@H](C)O)[C@@H](C)CC)[C@@H](C)CC)C(=O)N[C@@H](CCC(=O)O)C(=O)NCC(=O)NCC(=O)N1CCC[C@H]1C(=O)N[C@@H](CO)C(=O)N[C@@H](CO)C(=O)NCC(N)=O
Turning to B4, in assay [1], the “hGLP1R cAMP EC50 ratio” value is 0.935 and the “hGLP1R cAMP Rel EC50” value came out at 0.0572 nM. Moreover, in assay [2], the “hGIPR cAMP EC50 ratio” value was 0.851 and the “hGIPR cAMP Rel EC50” value was found to be 0.239 nM.

B5: Example 267 (peptide)
peptide: Y[Aib]EGTFTSDYSILLDKK([AEEA-AEEA-γGlu-C18 diacid])AQ[Aib]AFIEYLIEGG-NH2
modifications: N-terminus assumed
SMILES: CC[C@H](C)[C@H](NC(=O)[C@H](CC(C)C)NC(=O)[C@H](Cc1ccc(O)cc1)NC(=O)[C@H](CCC(=O)O)NC(=O)[C@@H](NC(=O)[C@H](Cc1ccccc1)NC(=O)[C@H](C)NC(=O)C(C)(C)NC(=O)[C@H](CCC(N)=O)NC(=O)[C@H](C)NC(=O)[C@H](CCCCNC(=O)COCCOCCNC(=O)COCCOCCNC(=O)CC[C@H](NC(=O)CCCCCCCCCCCCCCCCC(=O)O)C(=O)O)NC(=O)[C@H](CCCCN)NC(=O)[C@H](CC(=O)O)NC(=O)[C@H](CC(C)C)NC(=O)[C@H](CC(C)C)NC(=O)[C@@H](NC(=O)[C@H](CO)NC(=O)[C@H](Cc1ccc(O)cc1)NC(=O)[C@H](CC(=O)O)NC(=O)[C@H](CO)NC(=O)[C@@H](NC(=O)[C@H](Cc1ccccc1)NC(=O)[C@@H](NC(=O)CNC(=O)[C@H](CCC(=O)O)NC(=O)C(C)(C)NC(=O)[C@@H](N)Cc1ccc(O)cc1)[C@@H](C)O)[C@@H](C)O)[C@@H](C)CC)[C@@H](C)CC)C(=O)N[C@@H](CCC(=O)O)C(=O)NCC(=O)NCC(N)=O
On to B5, for which, in assay [1], the “hGLP1R cAMP EC50 ratio” value was determined as 0.974 and the “hGLP1R cAMP Rel EC50” value is 0.054 nM. In assay [2], the “hGIPR cAMP EC50 ratio” value came out at 1.5 and the “hGIPR cAMP Rel EC50” value was 0.108 nM.

The values above are taken from US20220048967A1 (published 2022).
